B1: ferritin purified from horse spleen (mixture of FTH1 and FTL subunits) (other)
chain 1: TTAFPSQVRQNYHQDSEAAINRQINLELHASYVYLSMSFYFDRDDVALKNFAKYFLHQSHEEREHAEKLMKLQNQRGGRIFLQDIKKPDQDDWENGLKAMECALHLEKNVNESLLELHKLATDKNDPHLCDFLETHYLNEQVKAIKELGDHVTNLRRMGAPESGMAEYLFDKHTLGECDES
chain 2: SSQIRQNYSTEVEAAVNRLVNLYLRASYTYLSLGFYFDRDDVALEGVCHFFRELAEEKREGAERLLKMQNQRGGRALFQDLQKPSQDEWGTTLDAMKAAIVLEKSLNQALLDLHALGSAQADPHLCDFLESHFLDEEVKLIKKMGDHLTNIQRLVGSQAGLGEYLFERLTLKHD
notes: Bought from Sigma (A3641 in the MYC assays, F4503 in the GST pull-downs); detected with anti-FTH1 antibody; also called Apoferritin; apo-ferritin purified from equine spleen
B2: MYC-tagged NCOA4B (transcript variant, amino acids 1-238 and 555-614 of full-length NCOA4) (other)
chain: MNTFQDQSGSSSNREPLLRCSDARRDLELAIGGVLRAEQQIKDNLREVKAQIHSCISRHLECLRSREVWLYEQVDLIYQLKEETLQQQAQQLYSLLGQFNCLTHQLECTQNKDLANQVSVCLERLGSLTLKPEDSTVLLFEADTITLRQTITTFGSLKTIQIPEHLMAHASSANIGPFLEKRGCISMPEQKSASGIVAVPFSEWLLGSKPASGYQAPYIPSTDPQDWLTQKQTLENSQGEDKWLLRKKAQEVLLNSPLQEEHNFPPDHYGLPAVCDLFACMQLKVDKEKWLYRTPLQM
notes: in vitro translated; also called NCOAB; not shown: N-terminal MYC tag (vector pT7CFE1-NMyc)
B3: N-terminal MYC-NCOA4 (aa 1-245) (other)
chain: MNTFQDQSGSSSNREPLLRCSDARRDLELAIGGVLRAEQQIKDNLREVKAQIHSCISRHLECLRSREVWLYEQVDLIYQLKEETLQQQAQQLYSLLGQFNCLTHQLECTQNKDLANQVSVCLERLGSLTLKPEDSTVLLFEADTITLRQTITTFGSLKTIQIPEHLMAHASSANIGPFLEKRGCISMPEQKSASGIVAVPFSEWLLGSKPASGYQAPYIPSTDPQDWLTQKQTLENSQTSSRACN
notes: In vitro translated; also called N-terminal NCOA4; NCOA4 N-terminal fragment; not shown: N-terminal MYC tag (vector pT7CFE1-NMyc)

One assay has as its target T1, MYC-NCOA4 full-length (human, UniProt Q13772 1-614).
T1 construct: not shown: N-terminal MYC tag (vector pT7CFE1-NMyc)
T1 sequence: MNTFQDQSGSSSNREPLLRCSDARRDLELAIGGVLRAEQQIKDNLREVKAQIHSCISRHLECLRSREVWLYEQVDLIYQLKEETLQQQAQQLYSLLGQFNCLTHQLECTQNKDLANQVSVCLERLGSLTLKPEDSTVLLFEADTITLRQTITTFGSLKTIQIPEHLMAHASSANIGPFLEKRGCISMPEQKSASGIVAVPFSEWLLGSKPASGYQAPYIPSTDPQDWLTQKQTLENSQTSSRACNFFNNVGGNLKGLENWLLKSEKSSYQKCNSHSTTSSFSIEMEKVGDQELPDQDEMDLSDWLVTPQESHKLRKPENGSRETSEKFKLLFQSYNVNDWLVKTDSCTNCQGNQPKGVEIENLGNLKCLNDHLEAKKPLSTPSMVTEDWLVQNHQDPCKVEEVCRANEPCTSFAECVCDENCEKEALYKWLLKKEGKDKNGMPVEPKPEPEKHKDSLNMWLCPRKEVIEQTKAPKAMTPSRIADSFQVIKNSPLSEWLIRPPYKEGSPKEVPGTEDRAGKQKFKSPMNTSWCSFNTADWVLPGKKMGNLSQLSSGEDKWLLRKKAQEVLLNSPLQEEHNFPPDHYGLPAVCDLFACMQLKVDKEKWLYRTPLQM
Description: anti-MYC immunoprecipitation of in vitro translated MYC-NCOA4 with horse spleen ferritin, immunoblot. Background: In western blotting, separated proteins are transferred to a membrane and probed.

In assay [1] the target is T2, C-terminal MYC-NCOA4 (aa 235-614) (human, UniProt Q13772 235-614).
T2 construct: In vitro translated; also called C-terminal NCOA4; NCOA4 C-terminal fragment; not shown: N-terminal MYC tag (vector pT7CFE1-NMyc)
T2 sequence: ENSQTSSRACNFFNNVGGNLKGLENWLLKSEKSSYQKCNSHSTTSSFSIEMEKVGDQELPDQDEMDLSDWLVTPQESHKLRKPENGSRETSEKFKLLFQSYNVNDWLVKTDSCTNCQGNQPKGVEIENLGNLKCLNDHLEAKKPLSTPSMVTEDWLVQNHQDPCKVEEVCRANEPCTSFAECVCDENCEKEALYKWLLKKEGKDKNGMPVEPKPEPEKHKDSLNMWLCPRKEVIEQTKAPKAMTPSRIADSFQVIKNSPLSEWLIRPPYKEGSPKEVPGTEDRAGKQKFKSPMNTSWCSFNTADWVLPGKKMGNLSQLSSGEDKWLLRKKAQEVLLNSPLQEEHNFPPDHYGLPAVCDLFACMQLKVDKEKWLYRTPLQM
The description is as above.

Assay [2] concerns the target B1. Description: anti-MYC immunoprecipitation of in vitro translated MYC-NCOA4B with horse spleen ferritin, FTH1 immunoblot.
Description: (§1) An anti-MYC antibody immunoprecipitation was performed followed by immunoblotting with the indicated antibodies.
(§2) To probe the interaction between ferritin and NCOA4, initial binding assays using MYC-tagged NCOA4 full-length and truncation constructs produced using an in vitro translation (“IVT”) system were conducted. […] Apoferritin (Sigma, A3641-100 mg) was added in a pull-down assay using anti-c-Myc Agarose Affinity Gel antibody produced in rabbit (Sigma, A7470-1 ML). Affinity purification reactions were washed thoroughly with 150 mM NaCl, 20 mM Tris (pH 7.4), and 2 mM dithiothreitol.
Assay [3] has as its target B1. Description: anti-MYC immunoprecipitation of in vitro translated MYC-NCOA4 with horse spleen ferritin, FTH1 immunoblot.
Description: as §1, §2

Description for MYC-NCOA4 full-length: as §1, §2

With B1, the binding result (with MYC-NCOA4 full-length; in assay [1]) was “binds” throughout. For the molecule B2, the binding result in assay [2] is on record as “no binding”. Regarding B3, the binding result in assay [3] is given as “no binding”.

The values above are taken from patent US20170182119A1 (Dana-Farber, published 2017).
